Test results published in publication PMC10397247.
One block for each binder: values may come before it.

How the values were obtained:
Test in all cases: two-hybrid library CCmax;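 further: natural log of median RNA to DNA barcode read ratio; higher means stronger binding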
Conditions in all cases: mean of both orientations
4H189-AA = target: T1, 4H189-AA
T1 chain: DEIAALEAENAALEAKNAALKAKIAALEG

4H428-AA = target: T2, 4H428-AA
T2 chain: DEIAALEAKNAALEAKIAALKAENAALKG

P6-AA-1HAA-S = target: T3, P6-AA-1HAA-S
T3 chain: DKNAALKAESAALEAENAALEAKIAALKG

P5-AA-1HAA-R = target: T4, P5-AA-1HAA-R
T4 chain: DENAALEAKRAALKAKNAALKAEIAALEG

P5-AA-12HGe-E = target: T5, P5-AA-12HGe-E
T5 chain: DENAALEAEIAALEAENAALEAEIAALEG

P5-AA-1HGe-Q = target: T6, P5-AA-1HGe-Q
T6 chain: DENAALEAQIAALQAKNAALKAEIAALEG

P6-AA-12HAA-L = target: T7, P6-AA-12HAA-L
T7 chain: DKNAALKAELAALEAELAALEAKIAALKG

4H1738-AA = target: T8, 4H1738-AA
T8 chain: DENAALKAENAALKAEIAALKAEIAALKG

4H2219-AA = target: T9, 4H2219-AA
T9 chain: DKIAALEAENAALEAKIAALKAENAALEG

APC8910-AA = target: T10, APC8910-AA
T10 chain: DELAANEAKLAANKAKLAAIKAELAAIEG

4H2290-AA = target: T11, 4H2290-AA
T11 chain: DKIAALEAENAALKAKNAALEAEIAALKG

4H3777-AA = target: T12, 4H3777-AA
T12 chain: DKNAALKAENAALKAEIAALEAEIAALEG

Binder: DENAALEAEIAALEAKIAALEAKNAALKG [4H1064-AA]
interaction score (4H189-AA): -1.4 | interaction score (4H428-AA): -1.04

Binder: DENAALEAKIAALKAKNAALKAEIAALEG [4H1401-AA]
interaction score (P6-AA-1HAA-S): 1.9

Binder: DENAALEAKIAALKAKIAALKAEIAALEG [4H1385-AA]
interaction score (P6-AA-12HAA-L): 2.03

Binder: DEIAALEAENAALKAKNAALKAEIAALEG [4H249-AA]
interaction score (4H3777-AA): -0.457

Results, then the binder that gave them:

interaction score (P5-AA-1HAA-R): 2 | interaction score (P5-AA-12HGe-E): 0.858 | interaction score (P5-AA-1HGe-Q): 2.38
Binder: DKNAALKAEIAALEAENAALEAKIAALKG [4H3606-AA]

interaction score (4H1738-AA): -0.841 | interaction score (4H2219-AA): -1.54
Binder: DENAALKAEIAALKAENAALKAEIAALKG [4H1626-AA]

interaction score (APC8910-AA): -1.69 | interaction score (4H2290-AA): -1.92
Binder: DENAALKAKIAALEAKNAALEAKIAALEG [4H1845-AA]
